Experiment [1] concerns the target T1, mature TGFα (R&D Systems, 239-A) (human, UniProt P01135 40-89). Description: ELISA on immobilized mature TGFα, COS-7 supernatant.
Experiment [2] deals with T1, mature TGFα (R&D Systems, 239-A). As to the kind of experiment: ELISA on immobilized mature TGFα (R&D Systems, 239-A).
Experiment [3] shares this target. Description: ELISA on immobilized TGFα (R&D Systems, 239-A).

B1: #2-20 mouse chimeric IgG2a recombinant antibody (#2-20 VH/VL with mouse IgG2a constant region) (antibody)
heavy: DVQLQESGPGLVKPSQSLSLTCTVTGYSITSDYAWNWIRLFPGNKLEWMGFINYSGNTSYNPSLKSRISITRDTSKNQFFLKLNSLTTDDTATYYCARGGLSRFPYWGQGTLVTVSAAKTTAPSVYPLAPVCGGTTGSSVTLGCLVKGYFPEPVTLTWNSGSLSSGVHTFPALLQSGLYTLSSSVTVTSNTWPSQTITCNVAHPASSTKVDKKIEPRVPITQNPCPPLKECPPCAAPDLLGGPSVFIFPPKIKDVLMISLSPMVTCVVVDVSEDDPDVQISWFVNNVEVHTAQTQTHREDYNSTLRVVSALPIQHQDWMSGKEFKCKVNNRALPSPIEKTISKPRGPVRAPQVYVLPPPAEEMTKKEFSLTCMITGFLPAEIAVDWTSNGRTEQNYKNTATVLDSDGSYFMYSKLRVQKSTWERGSLFACSVVHEGLHNHLTTKTISRSLGK
light: DIQMTQTTSSLSASLGDRVTISCRSSQDIRNYLNWYQQKPDGTVKLLIYYTSRSHSGVPSRFSGSGSGTDYSLTISNLEQEDIATYFCQQGNMFPFTFGGGTKLEIKRADAAPTVSIFPPSSEQLTSGGASVVCFLNNFYPKDINVKWKIDGSERQNGVLNSWTDQDSKDSTYSMSSTLTLTKDEYERHNSYTCEATHKTSTSPIVKSFNRNEC
notes: Transiently expressed in COS-7 and tested as culture supernatant; also called recombinant mouse chimeric IgG2a antibody; mouse IgG2a antibody
On to B1, for which, in experiment [1], the binding result is listed as “binds”.

B2: mouse hybridoma anti-TGFα antibody #2-20 (antibody, V domains shown)
VH: DVQLQESGPGLVKPSQSLSLTCTVTGYSITSDYAWNWIRLFPGNKLEWMGFINYSGNTSYNPSLKSRISITRDTSKNQFFLKLNSLTTDDTATYYCARGGLSRFPYWGQGTLVTVSA
VL: DIQMTQTTSSLSASLGDRVTISCRSSQDIRNYLNWYQQKPDGTVKLLIYYTSRSHSGVPSRFSGSGSGTDYSLTISNLEQEDIATYFCQQGNMFPFTFGGGTKLEIK
notes: Mouse IgG purified from hybridoma supernatant; also called #2-20 antibody; mouse #2-20 antibody
Consider B2, for which the binding result in experiment [2] is “binds”.

B3: EP19 monoclonal antibody (mouse hybridoma anti-EREG antibody) (antibody, V domains shown)
VH: EVQLQQSGPELEKPGASVKISCKASGYSFTGYNMNWVKQSNGKSLEWIGNIDPYYGAASYNQKFKGKATLTVDKSSSTAYMQLKSLTSEDSAVYYCARSQLPYWYFDVWGAGTTVTVSS
VL: DIVMTQSPSSLTVTAGEKVTMSCKSSQSLLNSGNQKNYLTWYQQKPGQPPKLLIYWASTRESGVPDRFTGSGSGTDFTLTISSVQAEDLAVYYCQNDYSYPYTFGGGTKLEIK
notes: Hybridoma antibody from WO 2008/047723; The variable region entries may include leader residues; also called EP19 antibody
For the molecule B3, the binding result in experiment [3] is “binds”.

B4: #2-20 recombinant human chimeric antibody (#2-20 VH/VL with human IgG1 constant region) (antibody)
heavy: not shown
light: DIQMTQTTSSLSASLGDRVTISCRSSQDIRNYLNWYQQKPDGTVKLLIYYTSRSHSGVPSRFSGSGSGTDYSLTISNLEQEDIATYFCQQGNMFPFTFGGGTKLEIKRTVAAPSVFIFPPSDEQLKSGTASVVCLLNNFYPREAKVQWKVDNALQSGNSQESVTEQDSKDSTYSLSSTLTLSKADYEKHKVYACEVTHQGLSSPVTKSFNRGEC
notes: Transiently expressed in COS-7 and tested as culture supernatant
As to B4, in experiment [1], the binding result is listed as “binds”.

Values taken from US20120141501A1 (Chugai, published 2012).
